Source: FireProtDB (doi:10.1021/bi0525223)

B1: Protein P-30, P22069 (parent)
chain: QDWLTFQKKHITNTRDVDCDNIMSTNLFHCKDKNTFIYSRPEPVKAICKGIIASKNVLTTSEFYLSDCNVTSRPCKYKLKKSTNKFCVTCENQAPVHFVGVGSC

Variants of: B1
Conditions: Lithobates pipiens, pH 5.5, sodium acetate 100 mM, reversible: Yes, structure 1ONC, whole UniProt chain shown; for ddG of mutation (higher = less stable) / denaturant midpoint (higher = more stable): 20 °C, GdnHCl, Fluorescence; for Tm / change of melting temperature, mutant - wild type (higher = more stable): Thermal, DSC

Row | Variant | ddG of mutation (higher = less stable) [kcal/mol] | denaturant midpoint (higher = more stable) [M] | Tm [°C] | change of melting temperature, mutant - wild type (higher = more stable) [°C]
1 | QDWLTFQKKHITNTRDVDCDNIMSTNLFHCKDKNTFIYSRPEPVKAICKGIIASKNVLTTSEFYLSDCNVTSRPCKYKLKKSTNKFAVTCENQAPVHFVGVGSA | 7.65 | 2.1 | 69.4 | -19.1
2 | QDWLTFQKKHITNTRDVDCDNIMSTNLFHCKDKNTYIYSRPEPVKAICKGIIASKNVLTTSEFYLSDCNVTSRPCKYKLKKSTNKFCVTCENQAPVHFVGVGSC | 4.66 | 3 | 79.2 | -9.3
3 | QDWLTFQKKHITNTRDVDCDNIMSTNLTHCKDKNTFIYSRPEPVKAICKGIIASKNVLTTSEFYLSDCNVTSRPCKYKLKKSTNKFCVTCENQAPVHFVGVGSC | 5.31 | 2.8 | 77.4 | -11.1
4 | QDWLTFQKKHITNTRDVDCDNIMSTNLAHCKDKNTFIYSRPEPVKAICKGIIASKNVLTTSEFYLSDCNVTSRPCKYKLKKSTNKFCVTCENQAPVHFVGVGSC | 5 | 2.9 | 78.1 | -10.4
